One molecule from doi:10.1101/783373 (bioRxiv, 2019) can be followed below.

Experiment [1] addresses PACRGΔ1-69 Y108ϕ (p-iodo-L-phenylalanine derivative) (human, UniProt Q96M98-2 70-257, Y108ϕ, p-iodo-L-phenylalanine (ϕ) at 108). Briefly: SEC. A general note: SEC sorts molecules by how far they enter the pores of the column.
Experiment [2] has as its target PACRGΔ1-69 Y189ϕ (p-iodo-L-phenylalanine derivative) (human, UniProt Q96M98-2 70-257, Y189ϕ, p-iodo-L-phenylalanine (ϕ) at 189). As to the kind of experiment: SEC.

B1: MEIG1 (human), His6 tag cleaved (natural protein)
chain: MASSDVKPKSVSHAKKWSEEIENLYRFQQAGYRDETEYRQVKQVSMVDRWPETGYVKKLQRRDNTFYYYNKQRECDDKEVHKVKIYAY
On to B1, for which the binding result in experiment [1] and in experiment [2] was “binds” throughout.
